These results are taken from the DeepSol protein solubility set.

A short description of the data set: soluble on expression in E. coli; label from the status in PepcDB or PDB records.
With “MNNISIPFEKLGNAKKVGIQLPDGLKRRAIEIAQLIEDRGYDVVISGETSFGACDIDLSILEVVDVLLHFAHTPILKDERVVYVPYFIEYNPKIDLKVDERRIALIATAQYVHKLPEVAEWLRGKGYEVEIGSPRGRVVYPGQVLGCNYSVLRGSNADAVVFIGDGLFHATGAAMYTKKKVYAYNPLSGELKEVDARNFEKKRYLEVSKCVGKSKAGILVSSKPGQRRLRLAEKLKKIGRENGLFCSIIYLNNVRAEELYNLPFDFYVNTACPRIAYDDGARFEKPVISPQEFELLLGLRESIAMDEIEF”, the “soluble on expression in E. coli” value was “not soluble”. With “SLEKSGFIVHQKFDSILQLEDFDSLDRALKESESYYQKLPSNWKTQVRKTSYHKNQMLNSLKILKKILREKNPESRKIQFQNSFLLLETKDEALGRITAYYEVIIEGRFYPEGDFIYPVLETPSDLIVKKDGNKKSVGKIINEVFVPYETREELSHTSVWKKRSKAIVYVKIVDLHLAQLEGSAFVKVPDHIPFRITYSEDNGKEYQSPAESLKGICSSLIPSDLKSCILKYPKEVEMAILKNPRYIFFKLESSAPRGSGGIELIPKRSVAMDPGIPLGIPVLISFESSVLTEKNRIVFVHDRGSQITGHGRLDYFLGTGETAEYQAGKINTQGKIFLILPKIKN” the entry was “not soluble”. Next, “MTKSETTLSKLLVESELVQECEELLSSLPRDRSVFAEYLYQYQGFWYPPNLLEGVLYSQKHFQARDSDIVLASIPKSGTTWLKSLVFALIHRQEFQTPLVSHPLLDNNPHTLVTFIEGFHLHTQDTSPRIFSTHIPVGSLPESVKDSSCKVVYCCRNPKDAFVSLWHFMKNLIVKEMVGCTMEEMVRFFCRGSSIYGPFWDHVLQYWKESRENPKKVMFVMYEEMREQPQEWVMRIAEFLGYSFTEEEIENGVLEDIIKLCSLENLSKLEVNEKGKLLNGMETKAFFRKGEIGGWRDTLTPLLAEEIDKTTKEKLIGSDFRFFC”: “soluble”; “MGSDKIHHHHHHMSEILVLGGGMVGISTALELQARGHAVTVVDRKAPGQETSYGNAGLIQAEAAEPYAMPRALPEILGILSGRSNDVIWSLRGVLSQLPALWQYYRYSHPHRHLALSQPNAHLIRTACADHDRWITAAAAQDLIAQDGYLSVFQDAAMFDSLASDLERLRQSYGVEATAMSGPQLCKMEPLYQRPPVGGIHWRDVWSCAAPGELVARYAALFQSRGGEICTGDASTLRPEGSAWALMSEAGRLHGEHAVIALGPWTPPILAQLGYRVRMIMKHGAHRMYPTGPKLRRPVHDAQHGIVLSSMKGGLRMTCGVALEASGRVPDARQLDRGAKGLAAYMDLGTAEGGPIWHGTRPFLPDMLPMVGAAPRHDRLWFHFGHGHQGFTLGPTTARHLGALIDGGDSAGIAALLPQNRPAVLS”: “not soluble”. As to RVCPRILLECKKDSDCLAECVCLEHGYCG, the “soluble on expression in E. coli” value is recorded as “soluble”. With “MQQSYNPQNSLTATTSYSEQEIVCICESLFNEGLQTGRTEQLANFIYNLPQCYQVMESVLKAQALVYFTTQNWKMLYKLLECSKFSPHNHTVLQNLWLDAHYKEAAKTKDRELGAVCKYRIRKKNPFPNTIWDGEETNYCFKSKSRNVLRDAYKKCQYPSVEDKRRLAQQTELSIIQVSNWFKNKRQRERAAGQLDRSSARSNDSDDGSSGCESKPPMNIDSPAPPPLPTSFDLQPYYPSPYTFAPHCDFSYIQNL” the entry was “not soluble”; with “MKVAICDDNPTLTEKINTMLFNYNPNIFETYTYYNPLKLVNQLDQENFDFFILDIEMSEMSGIDLAKKIRERDILSPIVFLTSYKEYMEEVFQVQTFDYLLKPPTEDRLHQVLEKLRQQLEKKRNYFVFSSNKVTYKIPTKDIIYFEKDKRQVLIHTVGEIYKPYMSTNQINEQLDTNFVQVHSSFIINCAYIKELGKNFLLMDSKEKCIEIPISRRFKAAAHKSIVMSMRGKI”, “not soluble”; with “MSLSFTPLHTTSEAFIEKALPWLEDRYFHIAYLNPNGYTAYPQGAFRHYLAFGSEAAIHVSDATRVFETWNEIKKGYTNEWIFVFASYDGKNSVEQLHTSKEAGIAFAAATFFIPEHVWEIQPDGILIHKGSGSSLVTEIQHAEPSTPVQQSDIFVKQVVSKESYFNAFDELQQIIAQGDAYEINYCIPFTAKGNISPAATYQRLNKKTPMPFSVYYKFNTEYILSASPERFIKKTGDTIISQPIKGTSKRGKSKAEDEMLKQQLGTSEKEQSENTMIVDLVRNDLSRTAVAGSVCVPELSGLYTFPNVHQLISTVQSTIDPACSSIDVIQQAFPMGSMTGAPKVNVMKFIDRIESMARGPFSGTVGYMDPHDNFDFNVLIRSIFYNSATQELFMEAGSAITSYAKAETEYEECLLKITPMIHILNNQEGHHHHHH”, “soluble”. Next, “MSLAYISLKSNLENPKYSLNVAHLYGDLMNTYGDNGNILMLKYVGEKLGAEMTFNIVSLGDTFAKEDYDLVFWGGGQDYEQEIIADQSLIDLSAPLKDYIESEKPLLAICGGYQMLGQYYVNSEGTKIQGTGILGHYTENLRTDRFIGDIETHNEEFGETYYGFENHSGITYLSDDEKPLGTVVYGGGNNPDDQTEGLIYKNTFGTYFHGPILSRNARLAYRLVTTALYQKYGEEIQLPAFEEILADEDKGQQIGDLKRKVEKEGHHHHHH”: “soluble”; “GPGSMETFRERTLANRYQPRQHLPPEFPGVLKEYAREVLREQPEDILQWSANYFKRLAREMDAKPAGEHRMTAPALPHLESRPNTREEEEEEYGERLQQYIDMFVEHDSENNGVLPVKAIKEALLKSYGLTLPQALYVLTATQLVEKEPVNYAEFACESFPALRFVWSTEHNFQVSNREDTTVHGLSRIDVQQEFLKLLRFADRSDTSLLSIDQYMDVLRCAPYHLTTRDLRILRVEAELNERHEVNYEEELLHIFDRLLLAEQFAQLDSDD”: “soluble”; “MGSDKIHHHHHHMKERILQEIKTRVNRKSWELWFSSFDVKSIEGNKVVFSVGNLFIKEWLEKKYYSVLSKAVKVVLGNDATFEITYEAFEPHSSYSEPLVKKRAVLLTPLNPDYTFENFVVGPGNSFAYHAALEVAKHPGRYNPLFIYGGVGLGKTHLLQSIGNYVVQNEPDLRVMYITSEKFLNDLVDSMKEGKLNEFREKYRKKVDILLIDDVQFLIGKTGVQTELFHTFNELHDSGKQIVICSDREPQKLSEFQDRLVSRFQMGLVAKLEPPDEETRKSIARKMLEIEHGELPEEVLNFVAENVDDNLRRLRGAIIKLLVYKETTGKEVDLKEAILLLKDFIKPNRVKAMDPIDELIEIVAKVTGVPREEILSNSRNVKALTARRIGMYVAKNYLKSSLRTIAEKFNRSHPVVVDSVKKVKDSLLKGNKQLKALIDEVIGEISRRALSG”: “not soluble”. Turning to “MSLTPYNVARKRGELKYLLLTESQFDGGMMLRFVLRSETKLTQLRAALPWLRAQLPQLRVITANIQPVHMAIMEGETEIYLTDQQALAERFNDVPLWIRPQSFFQTNPTVASRLYATARDWVGQLPVRHMWDLFCGVGGFGLHCATPQMQLTGIEIAPEAIACAKQSAAELGLTRLHFQALDSTQFATAQGETPDLVLVNPPRRGIGKPLCDYLAQMAPRFIIYSSCNAQTMAQDIRHLPNYRIQRVQLFDMFPHTAHYEVLALLRRSEGHHHHHH”, the “soluble on expression in E. coli” value is on record as “not soluble”. With “MAHHHHHHMWAKYSSSAVEEASKQAKSFATYPSSTPDMSGDEKEAFHETNSRDAFTVALLKHVARNLGVQYMGDRVETSDSIVMDKLGRIKAEIRSRERLLGVENMGLIPLFIEAGDSSLTCEDSLIYYKKALDIVEANKDIKRDSNMMNDVGVSSFADLGSRFFRYGQYQVAERLFTMAAAISRDKVTGVAEEISFSTAQCGSQKSLQRLKGHLWDWKKAAEAANEDLSTLLSDATRNTHRFREMRDACSQTDLAEHRVAMPASQFIGTKREMKGLKGTRNGEELKRLVEYVFDPMSVEDGFTRQLLPKGSRNTTRLLSEHFTGSNPCLALRESIDCITSRIGAKADSINSSGGALRRELQTR” the entry was “not soluble”; with “MPFTLGQRWISDTESELGLGTVVAVDARTVTLLFPSTGENRLYARSDSPVTRVMFNPGDTITSHDGWQMQVEEVKEENGLLTYIGTRLDTEESGVALREVFLDSKLVFSKPQDRLFAGQIDRMDRFALRYRARKYSSEQFRMPYSGLRGQRTSLIPHQLNIAHDVGRRHAPRVLLADEVGLGKTIEAGMILHQQLLSGAAERVLIIVPETLQHQWLVEMLRRFNLRFALFDDERYAEAQHDAYNPFDTEQLVICSLDFARRSKQRLEHLCEAEWDLLVVDEAHHLVWSEDAPSREYQAIEQLAEHVPGVLLLTATPEQLGMESHFARLRLLDPNRFHDFAQFVEEQKNYRPVADAVAMLLAGNKLSNDELNMLGEMIGEQDIEPLLQAANSDSEDAQSARQELVSMLMDRHGTSRVLFRNTRNGVKGFPKRELHTIKLPLPTQYQTAIKVSGIMGARKSAEDRARDMLYPERIYQEFEGDNATWWNFDPRVEWLMGYLTSHRSQKVLVICAKAATALQLEQVLREREGIRAAVFHEGMSIIERDRAAAWFAEEDTGAQVLLCSEIGSEGRNFQFASHMVMFDLPFNPDLLEQRIGRLDRIGQAHDIQIHVPYLEKTAQSVLVRWYHEGLDAFEHTCPTGRTIYDSVYNDLINYLASPDQTEGFDDLIKNCREQHEALKAQLEQGRDRLLEIHSNGGEKAQALAESIEEQDDDTNLIAFAMNLFDIIGINQDDRGDNMIVLTPSDHMLVPDFPGLSEDGITITFDREVALAREDAQFITWEHPLIRNGLDLILSGDTGSSTISLLKNKALPVGTLLVELIYVVEAQAPKQLQLNRFLPPTPVRMLLDKNGNNLAAQVEFETFNRQLNAVNRHTGSKLVNAVQQDVHAILQLGEAQIEKSARALIDAARNEADEKLSAELSRLEALRAVNPNIRDDELTAIESNRQQVMESLDQAGWRLDALRLIVVTHQ”, “soluble”. For “MEDDHSKEMDRLRSQAAKVQSEKETFDRKRRETLEKHKKELDELEKKNKKEEDDLREQNMNLWNKNLDQQIALGNELNNKYTEISNQNSRLQIKIGQEEDIRVFKIKLLDVSKVWTDVKVNYQDYLRNTLDEHSNSNKSDVLKEIDTLIYNKEKLNEVLITAKKLLGKCQKFTTSDSFKVINDSLTELMRFKFEDDILIELKTIIKKNGSAEQSFLTKMDETIDKYNEMVNELPGLQLKSVEPIHQAAIQ”, the “soluble on expression in E. coli” value is “soluble”. Next, “MEIKEITIIGGYDKNGNPEPVREVTIKRGEIVGVVGPTGSGKSNLISDIEQLAQGDTISKRRILVNGEVPPIEMRRDPKKRRIAQLSQNMNFLADMTVEEFILMHAKSRGVYRENIVDEVIELANRLTGEPIKKDYNLTILSGGQSRSLMVADVAVISDSPIVLIDEIENAGIKKHEALELLAGYGKIVLVITHDPVLALMTDRRIVMRNGGMQKIIETTEEEKEISRKINEVDNWLLSLREKIRFGERLTHEDISLMVKG”: “soluble”; “MKTVLAFGDSLTWGADPATGLRHPVEHRWPDVLEAELAGKAKVHPEGLGGRTTCYDDHAGPACRNGARALEVALSCHMPLDLVIIMLGTNDIKPVHGGRAEAAVSGMRRLAQIVETFIYKPREAVPKLLIVAPPPCVAGPGGEPAGGRDIEQS”: “not soluble”.

Turning to “GSHMQTPKETLSERLSALQDKIIDHYENDSKDIDSQIQYWQLIRWENAIFFAAREHGIQTLNHQVVPAYNISKSKAHKAIELQMALQGLAQSAYKTEDWTLQDTCEELWNTEPTHCFKKGGQTVQVYFDGNKDNCMTYVAWDSVYYMTDAGTWDKTATCVSHRGLYYVKEGYNTFYIEFKSECEKYGNTGTWEVHFGNNVIDCNDSMCSTSDDTVSAT”, the “soluble on expression in E. coli” value is “soluble”. Take “PSLSDEISPQGDGSFLIEGSTNIRDINKGLKWDLPTDGPRTLNGLILEHLEDIPESHLSVRVAGHPMEIVEIEENRIKLVRVYPKK”: the “soluble on expression in E. coli” value is “not soluble”.

“VTYNLEKRPTTIVLINDTPLNVLLDTGADTSVLTTAHYNRLKYRGRKYQGTGIGGVGGNVETFSTPVTIKKKGRHIKTRMLVADIPVTILGRDILQDLGAKLVL”: the “soluble on expression in E. coli” value is “soluble”.
